Columns and labels:
[1] = system: T1, Src (mt2) substrate peptide EIAGEFKK
T1 sequence: EIAGEFKK

[2] = system: T2, Src (wt) substrate peptide EIYGEFKK
T2 sequence: EIYGEFKK

[3] = system: T3, Src (mt1) substrate peptide EAYGEAKK
T3 sequence: EAYGEAKK

[4] = system: T4, Abl (Mt 1) substrate peptide ARYAAPDK
T4 sequence: ARYAAPDK

[5] = system: T5, Abl (wt) substrate peptide AIYAAPFK
T5 sequence: AIYAAPFK

[6] = system: T6, Abl (Mt 2) substrate peptide AIGAAPFK
T6 sequence: AIGAAPFK

[7] = system: combination of Abl and Src; experiment: Kinase substrate peptide array incubated with mixture of Abl and Src kinases, phospho-specific fluorescent stain; format: biochemical; details: incubation with combination of Abl and Src; 200 μM ATP, 10 mM MgCl2, 1 hour at 30° C.; FIG. 4C
Text: (§1) An array of 2520 peptides with 6 different amino acid sequences repeated 420 times was synthesized in situ. The six sequences were designed to represent wild type and two mutated versions of substrates of Abl and Src tyrosine kinases. The sequence of the peptides were: Abl (wt)—AIYAAPFK (SEQ ID NO:10); Abl (Mt 1)—ARYAAPDK (SEQ ID NO:11); Abl (Mt 2)—AIGAAPFK (SEQ ID NO:12); Src (wt)—EIYGEFKK (SEQ ID NO:13); Src (mt1)—EAYGEAKK (SEQ ID NO:14); and Src (mt2)—EIAGEFKK (SEQ ID NO:15), as shown in FIG. 3A.
(§2) The array was synthesized on amino derivatized silicon wafers coupled with dO-(N-Boc-2-aminoethyl)-O′—(N-diglycolyl-2-aminoethyl)hexaethyleneglycol molecule for spacing out the peptides from the surface. The peptides were synthesized using photodeprotection and t-Boc protected amino acids.
(§3) The kinase substrate array was then assayed for detecting Abl and Src kinase activity. The protecting groups of the side groups of amino acids were cleaved by HBr/TFA treatment for one hour in the presence of the scavengers thioanisole and pentamethylbenzene. The array was subsequently neutralized by 5% DIEA treatment for 5 minutes. The array was blocked with 2% BSA for 1 hour for eliminating non-specific sticking of the kinase to the array. […] The kinase mixture was washed off and the phosphorylated peptides were detected by incubating the array with a phospho-specific fluorescent stain.

[8] = target: Src kinase (Homo sapiens, UniProt P12931); experiment: Kinase substrate peptide array incubated with Src kinase alone, phospho-specific fluorescent stain; format: biochemical; details: incubation with Src alone; 200 μM ATP, 10 mM MgCl2, 1 hour at 30° C.; FIG. 4B
Text: as §1, §2, §3

[9] = target: Abl kinase (Homo sapiens, UniProt P00519); experiment: Kinase substrate peptide array incubated with Abl kinase alone, phospho-specific fluorescent stain; format: biochemical; details: incubation with Abl alone; 200 μM ATP, 10 mM MgCl2, 1 hour at 30° C.; FIG. 4A
Text: as §1, §2, §3

Abl kinase, sequence (P00519 whole entry): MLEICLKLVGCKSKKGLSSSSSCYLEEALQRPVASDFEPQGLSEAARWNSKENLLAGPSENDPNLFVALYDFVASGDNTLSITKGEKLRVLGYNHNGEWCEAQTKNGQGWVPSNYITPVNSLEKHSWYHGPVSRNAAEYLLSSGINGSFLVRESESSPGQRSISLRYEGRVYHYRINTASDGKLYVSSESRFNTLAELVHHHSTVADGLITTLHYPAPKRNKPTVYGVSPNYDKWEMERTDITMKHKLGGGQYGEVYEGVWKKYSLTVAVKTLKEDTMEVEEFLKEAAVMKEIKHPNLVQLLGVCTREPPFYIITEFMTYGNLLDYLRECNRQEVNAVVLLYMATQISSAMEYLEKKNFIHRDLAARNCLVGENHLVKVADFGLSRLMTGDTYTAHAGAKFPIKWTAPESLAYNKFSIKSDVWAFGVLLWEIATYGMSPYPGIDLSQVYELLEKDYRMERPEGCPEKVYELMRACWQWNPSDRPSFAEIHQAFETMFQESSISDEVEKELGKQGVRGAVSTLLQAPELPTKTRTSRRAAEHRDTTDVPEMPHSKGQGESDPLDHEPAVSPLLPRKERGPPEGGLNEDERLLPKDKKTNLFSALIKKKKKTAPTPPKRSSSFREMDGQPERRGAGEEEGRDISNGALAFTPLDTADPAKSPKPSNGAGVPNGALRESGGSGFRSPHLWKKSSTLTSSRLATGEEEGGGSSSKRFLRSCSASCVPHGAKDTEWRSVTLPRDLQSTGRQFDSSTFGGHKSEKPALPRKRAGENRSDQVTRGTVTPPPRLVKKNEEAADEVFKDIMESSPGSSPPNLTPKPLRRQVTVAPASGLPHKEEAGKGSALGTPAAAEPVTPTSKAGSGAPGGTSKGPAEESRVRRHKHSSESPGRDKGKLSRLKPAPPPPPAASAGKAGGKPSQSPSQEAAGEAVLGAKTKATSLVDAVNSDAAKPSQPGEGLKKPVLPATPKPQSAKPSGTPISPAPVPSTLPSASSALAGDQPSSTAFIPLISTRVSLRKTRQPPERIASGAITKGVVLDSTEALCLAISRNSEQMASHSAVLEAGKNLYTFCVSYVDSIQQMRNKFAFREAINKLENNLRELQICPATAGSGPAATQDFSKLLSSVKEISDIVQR
Abl kinase (Homo sapiens, UniProt P00519), sequence (P00519 whole entry): as above

## Abl kinase
[1]
  phosphorylation of the arrayed peptide, detected with a phospho-specific fluorescent stain: only the corresponding wild type substrate peptide (either SEQ NO:10 or 13, respectively) was phosphorylated (this peptide not phosphorylated)
[2]
  phosphorylation of the arrayed peptide, detected with a phospho-specific fluorescent stain: only the corresponding wild type substrate peptide (either SEQ NO:10 or 13, respectively) was phosphorylated (this peptide not phosphorylated)
[3]
  phosphorylation of the arrayed peptide, detected with a phospho-specific fluorescent stain: only the corresponding wild type substrate peptide (either SEQ NO:10 or 13, respectively) was phosphorylated (this peptide not phosphorylated)
[4]
  phosphorylation of the arrayed peptide, detected with a phospho-specific fluorescent stain: only the corresponding wild type substrate peptide (either SEQ NO:10 or 13, respectively) was phosphorylated (this peptide not phosphorylated)
[5]
  phosphorylation of the arrayed peptide, detected with a phospho-specific fluorescent stain: in the presence of one kinase, only the corresponding wild type substrate peptide (either SEQ NO:10 or 13, respectively) was phosphorylated
[6]
  phosphorylation of the arrayed peptide, detected with a phospho-specific fluorescent stain: only the corresponding wild type substrate peptide (either SEQ NO:10 or 13, respectively) was phosphorylated (this peptide not phosphorylated)

## EIYGEFKK [SEQ ID NO:13, wild type substrate peptide of Src tyrosine kinase, synthesized in situ on array]
[7]
  phosphorylation of immobilized peptide (fluorescence of array spots): phosphorylated
[8]
  phosphorylation of immobilized peptide (fluorescence of array spots): phosphorylated

## AIYAAPFK [SEQ ID NO:10, wild type substrate peptide of Abl tyrosine kinase, synthesized in situ on array]
[7]
  phosphorylation of immobilized peptide (fluorescence of array spots): phosphorylated
[9]
  phosphorylation of immobilized peptide (fluorescence of array spots): phosphorylated

## Src kinase
[1]
  phosphorylation of the arrayed peptide, detected with a phospho-specific fluorescent stain: only the corresponding wild type substrate peptide (either SEQ NO:10 or 13, respectively) was phosphorylated (this peptide not phosphorylated)
[2]
  phosphorylation of the arrayed peptide, detected with a phospho-specific fluorescent stain: in the presence of one kinase, only the corresponding wild type substrate peptide (either SEQ NO:10 or 13, respectively) was phosphorylated
[3]
  phosphorylation of the arrayed peptide, detected with a phospho-specific fluorescent stain: only the corresponding wild type substrate peptide (either SEQ NO:10 or 13, respectively) was phosphorylated (this peptide not phosphorylated)
[4]
  phosphorylation of the arrayed peptide, detected with a phospho-specific fluorescent stain: only the corresponding wild type substrate peptide (either SEQ NO:10 or 13, respectively) was phosphorylated (this peptide not phosphorylated)
[5]
  phosphorylation of the arrayed peptide, detected with a phospho-specific fluorescent stain: only the corresponding wild type substrate peptide (either SEQ NO:10 or 13, respectively) was phosphorylated (this peptide not phosphorylated)
[6]
  phosphorylation of the arrayed peptide, detected with a phospho-specific fluorescent stain: only the corresponding wild type substrate peptide (either SEQ NO:10 or 13, respectively) was phosphorylated (this peptide not phosphorylated)

— patent publication US20100248975A1, “Fluorogenic peptide substrate arrays for highly multiplexed, real-time monitoring of kinase activities” (priority 2006, published 2010)
